Source: US20230052168A1 (ROYAL COLLEGE OF SURGEIONS IN IRELAND, published 2023)
Positions count from the first letter of the chain named. In names and notes the source's numbering stands. One block for each binder: values may come before it.

What was measured:
protein C (zymogen) [1] = target: T1, protein C (zymogen) (UniProt P04070 43-461); test: inferred from APC generation assay on endothelial cells with E86A control
T1 construct: also called PC
Experimental: (§1) Protein C (100 nM) and thrombin (5 nM) were added with h-sEPCR^Snoop (1 μM) or h-sEPCR-E86A^Snoop (1 μM) an sEPCR variant unable to bind to PC/APC, then incubated for 30 minutes. […] The net effect of this restriction of APC generation. Statistical analysis of experimental data was performed using one-way ANOVA and Tukey's multiple comparison post hoc analysis. ns signifies non-significant, * signifies a p value of <0.05.
as §1, with “Assessment of h-sEPCR^Snoop Inhibition of Protein C Activation by the Thrombin-Thrombomodulin Complex on Endothelial Cells Protein” for “Protein”, “h-sEPCR-E86ASnoop” for “h-sEPCR-E86A^Snoop”, “<0.05 (see FIG. 5).” for “<0.05.”

protein C (zymogen) [2] = target: T1, protein C (zymogen); test: control in APC generation assay on endothelial cells (protein C 100 nM, thrombin 5 nM)
Experimental: as §1
as §1, with “Assessment of h-sEPCR^Snoop Inhibition of Protein C Activation by the Thrombin-Thrombomodulin Complex on Endothelial Cells Protein” for “Protein”, “h-sEPCR-E86ASnoop” for “h-sEPCR-E86A^Snoop”, “<0.05 (see FIG. 5).” for “<0.05.”

T1 sequence (P04070 43-461): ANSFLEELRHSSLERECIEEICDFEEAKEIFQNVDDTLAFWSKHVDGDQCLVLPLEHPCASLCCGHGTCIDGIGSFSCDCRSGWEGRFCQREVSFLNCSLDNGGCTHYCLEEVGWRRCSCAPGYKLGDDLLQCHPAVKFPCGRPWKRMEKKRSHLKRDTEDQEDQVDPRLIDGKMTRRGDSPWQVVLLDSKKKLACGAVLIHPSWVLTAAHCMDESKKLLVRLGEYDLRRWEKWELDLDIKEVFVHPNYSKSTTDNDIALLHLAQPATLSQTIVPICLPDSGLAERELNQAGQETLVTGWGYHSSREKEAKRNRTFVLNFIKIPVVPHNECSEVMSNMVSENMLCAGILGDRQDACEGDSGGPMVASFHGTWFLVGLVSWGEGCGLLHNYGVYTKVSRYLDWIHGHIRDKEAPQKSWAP

binding result (protein C (zymogen) [1]): binds
B1: h-sEPCR^Snoop (recombinant human soluble endothelial cell protein C receptor with GSGGSG linker, SnoopTag and C-terminal His-tag) (receptor)
chain: SQDASDGLQRLHMLQISYFRDPYHVWYQGNASLGGHLTHVLEGPDTNTTIIQLQPLQEPESWARTQSGLQSYLLQFHGLVRLVHQERTLAFPLTIRCFLGCELPPEGSRAHVFFEVAVNGSSFVSFRPERALWQADTQVTSGVVTFTLQQLNAYNRTRYELREFLEDTCVQYVQKHISAENTKGSQTSRSYTSGSGGSGKLGDIEFIKVNKHHHHHH
notes: Expressed in HEK293 cells, purified on nickel; The printed entry still carries the N-terminal signal peptide; also called human sEPCR^Snoop; r-sEPCR

binding result (protein C (zymogen) [2]): no binding (tested: 1 µM)
B2: h-sEPCR-E86A^Snoop (receptor)
chain: B1 chain with E86A
